This test deals with Streptavidin (UniProt P22629). As to the kind of experiment: flow cytometry of YFP fluorescence on streptavidin coated beads after adding 1 uM biotin.
Streptavidin, sequence (P22629 37-163 limits assumed): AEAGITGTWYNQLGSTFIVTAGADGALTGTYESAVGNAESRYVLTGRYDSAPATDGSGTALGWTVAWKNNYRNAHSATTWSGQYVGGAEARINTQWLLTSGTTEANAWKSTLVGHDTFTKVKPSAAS

With “Yellow fluorescent protein with streptavidin binding peptide SA-1 inserted after Y145”, the koff was determined as 0.02 s⁻¹.

The koff is the first-order rate constant of dissociation.
